B1: E3 ubiquitin-protein ligase MARCHF6 (Homo sapiens), O60337 (parent)
chain: MDTAEEDICRVCRSEGTPEKPLYHPCVCTGSIKFIHQECLVQWLKHSRKEYCELCKHRFAFTPIYSPDMPSRLPIQDIFAGLVTSIGTAIRYWFHYTLVAFAWLGVVPLTACRIYKCLFTGSVSSLLTLPLDMLSTENLLADCLQGCFVVTCTLCAFISLVWLREQIVHGGAPIWLEHAAPPFNAAGHHQNEAPAGGNGAENVAADQPANPPAENAVVGENPDAQDDQAEEEEEDNEEEDDAGVEDAADANNGAQDDMNWNALEWDRAAEELTWERMLGLDGSLVFLEHVFWVVSLNTLFILVFAFCPYHIGHFSLVGLGFEEHVQASHFEGLITTIVGYILLAITLIICHGLATLVKFHRSRRLLGVCYIVVKVSLLVVVEIGVFPLICGWWLDICSLEMFDATLKDRELSFQSAPGTTMFLHWLVGMVYVFYFASFILLLREVLRPGVLWFLRNLNDPDFNPVQEMIHLPIYRHLRRFILSVIVFGSIVLLMLWLPIRIIKSVLPNFLPYNVMLYSDAPVSELSLELLLLQVVLPALLEQGHTRQWLKGLVRAWTVTAGYLLDLHSYLLGDQEENENSANQQVNNNQHARNNNAIPVVGEGLHAAHQAILQQGGPVGFQPYRRPLNFPLRIFLLIVFMCITLLIASLICLTLPVFAGRWLMSFWTGTAKIHELYTAACGLYVCWLTIRAVTVMVAWMPQGRRVIFQKVKEWSLMIMKTLIVAVLLAGVVPLLLGLLFELVIVAPLRVPLDQTPLFYPWQDWALGVLHAKIIAAITLMGPQWWLKTVIEQVYANGIRNIDLHYIVRKLAAPVISVLLLSLCVPYVIASGVVPLLGVTAEMQNLVHRRIYPFLLMVVVLMAILSFQVRQFKRLYEHIKNDKYLVGQRLVNYERKSGKQGSSPPPPQSSQE

Variants of: B1
Conditions: with erg1_human SQLE

Q: Which “effect of a mutation on the interaction” value does the source give for C9A here?
A: increasing interaction

— IntAct's records for PubMed 24449766
